Data set [1] concerns the target POLR2A fragment Ile1231-Lys1350 (UniProt P24928 1231-1350). In words: EMSA. On the technique in general: In EMSA bound probe runs differently from free probe, usually more slowly.
The next data set deals with T1, RAD21 (UniProt O60216 1-631).
T1 sequence: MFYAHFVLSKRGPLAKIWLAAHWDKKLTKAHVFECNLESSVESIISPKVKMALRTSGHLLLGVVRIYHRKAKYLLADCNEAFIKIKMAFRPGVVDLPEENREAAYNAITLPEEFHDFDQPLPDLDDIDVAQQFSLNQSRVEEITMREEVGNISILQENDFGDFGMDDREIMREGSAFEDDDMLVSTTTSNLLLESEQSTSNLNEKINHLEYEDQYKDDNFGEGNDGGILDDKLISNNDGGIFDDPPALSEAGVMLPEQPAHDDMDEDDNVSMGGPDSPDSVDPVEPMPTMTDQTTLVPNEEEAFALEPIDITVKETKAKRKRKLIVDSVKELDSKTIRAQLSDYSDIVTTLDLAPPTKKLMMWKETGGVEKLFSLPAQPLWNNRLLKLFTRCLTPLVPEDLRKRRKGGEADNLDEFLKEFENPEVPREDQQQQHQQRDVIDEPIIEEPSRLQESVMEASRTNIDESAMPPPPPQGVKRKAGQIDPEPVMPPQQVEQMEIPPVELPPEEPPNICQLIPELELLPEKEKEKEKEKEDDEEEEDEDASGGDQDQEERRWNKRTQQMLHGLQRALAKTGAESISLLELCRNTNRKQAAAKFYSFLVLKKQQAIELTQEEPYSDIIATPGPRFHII
As to the kind of experiment: EMSA.

The values that follow come from publication PMC12123872.

Chain of POLR2A fragment Ile1231-Lys1350 (P24928 1231-1350): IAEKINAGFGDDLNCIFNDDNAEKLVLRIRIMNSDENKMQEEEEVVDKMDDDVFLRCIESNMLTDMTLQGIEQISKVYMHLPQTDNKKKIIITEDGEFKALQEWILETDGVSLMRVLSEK

B1: rs1950834-G probe (dsDNA)
DNA 1: TCGGAGTTTGGCCTTCCGGCTCTCCAACTCAGATC
DNA 2: GATCTGAGTTGGAGAGCCGGAAGGCCAAACTCCGA
For B1, the binding result (in data set [1]; in the data set with RAD21) was “binds” each time.
